{
  "source": "patent US20100172835A1",
  "about": "(BURNHAM INSTITUTE FOR MEDICAL RESEARCH, published 2010)",
  "molecules": {"B1": {"name": "FITC conjugated LyP-1 peptide (peptide)", "peptide": "CGNKRTRGC", "modifications": "disulfide 1-9 (inferred); also: FITC conjugated, position not given here", "notes": "Used at 10 uM on cells at 4 C; also called FITC-LyP-1"}, "B2": {"name": "biotinylated CREKA peptide (peptide)", "peptide": "CREKA", "modifications": "also: biotinylated, position not given here", "notes": "Negative control in the pull-down; also called control peptide"}, "B3": {"name": "biotinylated CRV peptide (peptide)", "peptide": "CRVRTRSGC", "modifications": "disulfide 1-9 (inferred); also: biotinylated, site not given here", "notes": "as for B2"}, "B4": {"name": "LyP-1 phage (other, not shown: large carriers)", "chain": "CGNKRTRGC", "modifications": "cysteine pairing not given here; also: displayed on phage coat protein", "notes": "Phage displaying the LyP-1 peptide; also called Lyp-1 expressing phage"}},
  "key": {"[1]": {"target": "T1, gC1qR/p32 at the cell surface (human, UniProt Q07021 74-282)", "T1 construct": "whole, on cells; also called cell surface p32", "T1 sequence (looked up)": "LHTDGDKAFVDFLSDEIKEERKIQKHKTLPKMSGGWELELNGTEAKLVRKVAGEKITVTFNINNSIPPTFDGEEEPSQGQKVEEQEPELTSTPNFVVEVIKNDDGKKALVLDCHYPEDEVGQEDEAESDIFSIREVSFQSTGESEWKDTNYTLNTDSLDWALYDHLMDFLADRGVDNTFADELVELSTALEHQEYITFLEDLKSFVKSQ", "experiment": "LyP-1 phage binding to Raji cells pre-incubated with 40 µg/ml mAb; ligand blocked: LyP-1 phage"}, "[2]": {"target": "T2, purified gC1qR/p32 protein (human, UniProt Q07021 74-282)", "T2 construct": "also called purified p32", "T2 sequence (looked up)": "T1 sequence (looked up)", "experiment": "LyP-1 phage binding to wells coated with purified gC1qR/p32 with 20 µg/ml mAb; ligand blocked: LyP-1 phage"}, "[3]": {"target": "T3, neuropilin-1 by forced expression on M21 cells (Homo sapiens (Human), UniProt O14786 22-923)", "T3 sequence (O14786 22-923 limits assumed, form in doubt)": "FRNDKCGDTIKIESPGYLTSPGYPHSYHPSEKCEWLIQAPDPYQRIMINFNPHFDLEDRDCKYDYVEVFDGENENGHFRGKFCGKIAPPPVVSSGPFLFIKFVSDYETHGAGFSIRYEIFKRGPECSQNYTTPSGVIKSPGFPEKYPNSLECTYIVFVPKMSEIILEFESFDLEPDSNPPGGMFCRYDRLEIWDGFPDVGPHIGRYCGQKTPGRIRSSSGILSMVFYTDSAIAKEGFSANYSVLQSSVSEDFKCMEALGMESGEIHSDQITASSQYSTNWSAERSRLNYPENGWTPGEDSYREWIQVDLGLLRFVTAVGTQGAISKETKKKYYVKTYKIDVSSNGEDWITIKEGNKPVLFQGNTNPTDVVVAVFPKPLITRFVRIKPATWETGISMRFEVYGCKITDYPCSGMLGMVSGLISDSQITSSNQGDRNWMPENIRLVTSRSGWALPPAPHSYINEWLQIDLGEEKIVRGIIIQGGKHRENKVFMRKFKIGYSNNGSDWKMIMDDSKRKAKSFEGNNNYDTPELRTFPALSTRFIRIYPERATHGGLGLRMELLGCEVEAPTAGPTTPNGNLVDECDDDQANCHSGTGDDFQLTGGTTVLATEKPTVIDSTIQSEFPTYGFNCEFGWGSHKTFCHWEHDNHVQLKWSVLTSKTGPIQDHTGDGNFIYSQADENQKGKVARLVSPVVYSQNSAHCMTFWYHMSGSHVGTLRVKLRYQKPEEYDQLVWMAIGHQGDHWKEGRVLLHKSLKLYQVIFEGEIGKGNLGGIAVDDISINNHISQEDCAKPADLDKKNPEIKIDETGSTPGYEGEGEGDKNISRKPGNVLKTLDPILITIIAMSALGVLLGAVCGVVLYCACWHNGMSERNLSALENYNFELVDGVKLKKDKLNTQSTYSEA", "experiment": "cell-based or functional assay"}, "[4]": {"target": "T3, neuropilin-1 by forced expression on …", "experiment": "CRGDK phage binding to M21 cells transfected with neuropilin-1 cDNA, against untransfected or vector-only cells"}, "[5]": {"target": "T1, gC1qR/p32 at the cell surface", "experiment": "FACS of 10 µM FITC-LyP-1 on MDA-MB-435 S35 cells with p32 siRNA or control siRNA", "description": "(§1) 48 hours after transfection, inhibition of p32 expression was checked by immunoblot analysis and immunostaining (upper panels). β-actin was used as a control. […] Cells incubated in the absence of peptide served as negative control. […] A representative experiment out of three is shown. C. […] Insertless phage was used to determine background phage binding.\n(§2) MDA-MB-435 cells were transiently transfected with gC1qR/p32-specific or control siRNAs. […] The amount of fluorescence in living cells was analyzed by FACS. Cells incubated in the absence of peptide served as FITC negative control."}, "[6]": {"target": "T4, gC1qR/p32 from tumor cell extracts (human, UniProt Q07021 74-282)", "T4 construct": "mature; From xenograft extracts an additional 75 kD band was also identified as gC1qR/p32; also called gC1q/p32 receptor; p32/p33/gC1qR/HABP1", "T4 sequence (looked up)": "T1 sequence (looked up)", "experiment": "pull-down from MDA-MB-435 extracts, anti-gC1qR/p32 immunoblot"}, "[7]": {"target": "T2, purified gC1qR/p32 protein", "experiment": "phage binding to wells coated with purified gC1qR/p32, plaque assay"}, "[8]": {"target": "T1, gC1qR/p32 at the cell surface", "experiment": "phage binding to C8161 cells transiently transfected with gC1qR/p32 cDNA", "description": "as §1, with “A. C8161 cells were transiently transfected with pEGFP together with either empty pcDNA3.1 vector or p32 pcDNA3.1 vector. Transfected cells were sorted for EGFP expression and the sorted populations were used for phage binding assay and immunoblot analysis with anti-p32. […] 48” for “48”"}, "αv integrins": {"target": "αv integrins", "experiment": "assay not described in the filing"}, "[9]": {"target": "T1, gC1qR/p32 at the cell surface", "experiment": "FACS of FITC-peptide on MDA-MB-435 cells transfected with p32 siRNA or control siRNA", "description": "as §1, §2"}},
  "note": "Bridges are numbered along the chain shown (N, C = ends). Where no end group is shown, it is not given here.",
  "data": [
    {"molecule": "mouse monoclonal 60.11 anti-gC1qR/p32 antibody", "values": [
      {"measurement": "reduction of LyP-1 binding", "setting": "[1]", "result": 50, "unit": "%"},
      {"measurement": "reduction of LyP-1 phage binding", "setting": "[2]", "result": 90, "unit": "%"}
    ]},
    {"molecule": "CRGDK (other, also: displayed on T7 phage capsid protein, not shown: T7 phage capsid protein)", "note": "[CRGDK phage]", "values": [
      {"measurement": "internalization of CRGDK phage into M21 cells", "setting": "[3]", "result": 3.5, "unit": "fold"},
      {"measurement": "fold increase in binding upon forced expression of neuropilin-1", "setting": "[4]", "result": 3.5, "unit": "fold"}
    ]},
    {"molecule": "B1", "values": [
      {"measurement": "binding result", "setting": "[5]", "result": "binds"}
    ]},
    {"molecule": "B2", "values": [
      {"measurement": "binding result", "setting": "[6]", "result": "no binding"}
    ]},
    {"molecule": "B3", "values": [
      {"measurement": "binding result", "setting": "[6]", "result": "no binding"}
    ]},
    {"molecule": "B4", "values": [
      {"measurement": "fold binding over insertless control phage", "setting": "[7]", "result": 60, "unit": "fold"},
      {"measurement": "fold binding over control phage", "setting": "[8]", "result": 5, "unit": "fold"}
    ]},
    {"molecule": "CRGDK", "note": "[CRGDK fragment]", "values": [
      {"measurement": "fold reduction in affinity (against iRGD)", "setting": "αv integrins", "result": "50 to 150", "unit": "fold"}
    ]},
    {"molecule": "ARALPSQRSR (also: FITC conjugated, position not given here)", "note": "[FITC conjugated control peptide ARALPSQRSR]", "values": [
      {"measurement": "binding result", "setting": "[9]", "result": "no binding (tested: 10 µM)"}
    ]}
  ]
}
